From US7897142B2, “Peptide based-compounds” (GE Healthcare AS, priority 2004, dated 2011)
Positions of bridges follow the written chain, without caps; N, C: chain ends. Residues, ends and D or L forms follow the SMILES beside them. *: point of attachment. X1 = CC[N+]1=C(/C=C/C=C/C=C2/N(CCCCCC(=O)*)c3ccc(S(=O)(=O)O)cc3C2(C)C)C(C)(C)c2cc(S(=O)(=O)[O-])ccc21; X3 = C[N+]1=C(/C=C/C=C/C=C2/N(CCCCCC(=O)*)c3ccccc3C2(C)C)C(C)(C)c2cc(S(=O)(=O)[O-])ccc21; X2 = NC(=O)COCC(=O)NCCOCCOCCOCCN*

Test: in vitro
Settings: blood plasma
Description: Protein Binding Analysis of Dye Conjugates Containing 1, 2 and 4 Sulphonic Acid Groups
An analysis of protein binding of the dye conjugates of the invention was performed by an equilibrium dialysis and rate dialysis as described in the book “Protein-Ligand Interactions: Hydrodynamics and calorimetry”, edited by Stephen E. Harding and Babur Z. Chowdhry, Oxford University Press, published 2001, chapter 2 by Bent Honoré, Department of Medical Biochemisty, University of Aarhus.

Point of comparison: `CC[N+]1=C(/C=C/C=C/C=C2/N(CCCCCC(=O)NCCCC[C@@H]3NC(=O)CSC[C@@H](C(=O)NCCOCCOCCOCCNC(=O)COCC(N)=O)NC(=O)[C@H](Cc4ccccc4)NC(=O)[C@@H]4CSSC[C@H](NC3=O)C(=O)N[C@@H](CCCNC(=N)N)C(=O)NCC(=O)N[C@@H](CC(=O)O)C(=O)N4)c3ccc(S(=O)(=O)O)cc3C2(C)C)C(C)(C)c2cc(S(=O)(=O)[O-])ccc21` [Compound B, Cys2-6; c[CH2CO-Lys(Cy5 bis-SO3)-Cys-Arg-Gly-Asp-Cys-Phe-Cys]-(PEG)n-NH2 (n=1)] ({CH2CO}-K(X1)CRGDCFC-X2; disulfide 2-6; thioether N-8), fraction unbound 0.79. Against it:
- CC[N+]1=C(/C=C/C=C/C=C2/N(CCCCCC(=O)NCCCC[C@@H]3NC(=O)CSC[C@@H](C(=O)NCCOCCOCCOCCNC(=O)COCC(N)=O)NC(=O)[C@H](Cc4ccccc4)NC(=O)[C@@H]4CSSC[C@H](NC3=O)C(=O)N[C@@H](CCCNC(=N)N)C(=O)NCC(=O)N[C@@H](CC(=O)O)C(=O)N4)c3ccc4c(S(=O)(=O)O)cc(S(=O)(=O)O)cc4c3C2(C)C)C(C)(C)c2c1ccc1c(S(=O)(=O)O)cc(S(=O)(=O)O)cc21 [Compound C] — lower, 0.55
- C[N+]1=C(/C=C/C=C/C=C2/N(CCCCCC(=O)NCCCC[C@@H]3NC(=O)CSC[C@@H](C(=O)NCCOCCOCCOCCNC(=O)COCC(N)=O)NC(=O)[C@H](Cc4ccccc4)NC(=O)[C@@H]4CSSC[C@H](NC3=O)C(=O)N[C@@H](CCCNC(=N)N)C(=O)NCC(=O)N[C@@H](CC(=O)O)C(=O)N4)c3ccccc3C2(C)C)C(C)(C)c2cc(S(=O)(=O)[O-])ccc21 [Compound A, Cys2-6; c[CH2CO-Lys(Cy5 mono-SO3)-Cys-Arg-Gly-Asp-Cys-Phe-Cys]-(PEG)n-NH2 (n=1)] ({CH2CO}-K(X3)CRGDCFC-X2; disulfide 2-6; thioether N-8) — higher, 0.83
